Reference: publication PMC12412624, “Engineered Cas12j‐8 is a Versatile Platform for Multiplexed Genome Modulation in Mammalian Cells”
Substitutions are numbered along the chain they refer to.

Assays:
[1] = system: T1, dCas12j-8 D234R D234R;D369A;E567A;D658A (bacteriophage (metagenome)); conditions: HEK293T cells; panel 1c (compare within a panel only); scale: mean GFP / mean GFP of wild type, printed, no background subtraction
T1 sequence: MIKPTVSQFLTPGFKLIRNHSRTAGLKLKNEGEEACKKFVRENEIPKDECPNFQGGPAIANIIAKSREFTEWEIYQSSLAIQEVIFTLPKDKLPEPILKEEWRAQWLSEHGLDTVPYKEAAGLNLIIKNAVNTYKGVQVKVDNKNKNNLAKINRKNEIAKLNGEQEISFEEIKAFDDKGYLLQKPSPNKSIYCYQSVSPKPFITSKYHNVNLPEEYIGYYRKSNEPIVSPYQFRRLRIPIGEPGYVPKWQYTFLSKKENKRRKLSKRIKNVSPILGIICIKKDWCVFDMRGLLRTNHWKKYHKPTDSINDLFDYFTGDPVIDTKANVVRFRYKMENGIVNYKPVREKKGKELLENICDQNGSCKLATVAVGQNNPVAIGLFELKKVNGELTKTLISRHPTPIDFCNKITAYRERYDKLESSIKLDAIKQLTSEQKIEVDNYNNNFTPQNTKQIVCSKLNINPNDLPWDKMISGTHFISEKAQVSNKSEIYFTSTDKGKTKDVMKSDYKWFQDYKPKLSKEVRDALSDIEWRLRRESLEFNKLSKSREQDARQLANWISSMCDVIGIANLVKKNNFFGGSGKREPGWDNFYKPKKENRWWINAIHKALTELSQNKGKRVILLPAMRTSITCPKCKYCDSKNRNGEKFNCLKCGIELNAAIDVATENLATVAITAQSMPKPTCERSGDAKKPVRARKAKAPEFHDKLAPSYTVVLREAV

[2] = system: T2, dCas12j-8 E157R E157R;D369A;E567A;D658A (bacteriophage (metagenome)); conditions: HEK293T cells; panel 1c (compare within a panel only); scale: mean GFP / mean GFP of wild type, printed, no background subtraction
T2 sequence: T1 sequence with E157R, R234D

[3] = system: T3, dCas12j-8 D403R D403R;D369A;E567A;D658A (bacteriophage (metagenome)); conditions: HEK293T cells; panel 1c (compare within a panel only); scale: mean GFP / mean GFP of wild type, printed, no background subtraction
T3 sequence: T1 sequence with R234D, D403R

[4] = system: T4, dCas12j-8 E258R+E547R E258R;E547R;D369A;E567A;D658A (bacteriophage (metagenome)); conditions: HEK293T cells; panel 1d (compare within a panel only); scale: mean GFP / mean GFP of wild type, printed, no background subtraction
T4 sequence: T1 sequence with R234D, E258R, E547R

Q: What does the source list for “CUUUCAAGACUAAUAGAUUGCUCCUUACGAGGAGACACUCCCUAUCAGUGAUAGAG / TTNACTCCCTATCAGTGATAGAG / CTCTATCACTGATAGGGAGTNAA [TetO]”?
A: binding signal [1]: 0.475; binding signal [2]: 1.39; binding signal [3]: 0.365; binding signal [4]: 3.03
